This is an account of results in publication PMC12723722, “Phosphorylation event changes the RNA binding mode of EZH2 disordered segment”.

Data set [1] has as its target Thymosin beta 4 (Tβ4) (UniProt P62328 2-44, not fully specified). Put plainly: EMSA; EMSA: LightShift RNA EMSA kit protocol, 1-2 nM refolded RNA, 30 min room temperature, 4 or 6% native PAGE, 0.5x TBE; MST: Monolith NT.115, standard treated capillaries, 40% MST power; binding buffer, salt and pH not given in the material. Conditions: protein: recombinant; label: 3' biotin (EMSA); Cy5 aminoallyl-UTP for labelled RNA; hairpin (predicted).

The target in data set [2] is EZH2 loop WT (UniProt Q15910 340-435). Put plainly: EMSA; small but clear shift; EMSA: LightShift RNA EMSA kit protocol, 1-2 nM refolded RNA, 30 min room temperature, 4 or 6% native PAGE, 0.5x TBE; MST: Monolith NT.115, standard treated capillaries, 40% MST power; binding buffer, salt and pH not given in the material. Conditions: protein: recombinant; tags: His tag implied (pET22b, HisTrap); label: 3' biotin (EMSA); Cy5 aminoallyl-UTP for labelled RNA; hairpin (predicted).
Sequence of EZH2 loop WT (Q15910 340-435): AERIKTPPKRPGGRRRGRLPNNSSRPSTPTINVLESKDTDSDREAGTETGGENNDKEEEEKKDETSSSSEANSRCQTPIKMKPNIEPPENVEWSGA

Sequence of Thymosin beta 4 (Tβ4) (P62328 2-44): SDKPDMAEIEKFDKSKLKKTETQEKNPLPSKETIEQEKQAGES

B1: R50 (structured_RNA)
RNA: AAGAAUGGCCUCGCGGAGGCAUGCGUCAUGCUAGCGUGCGGGGUACUCUU
Consider B1, for which the binding result in data set [1] is recorded as “no binding”; in data set [2] it was “binds”.
